Source: patent US8883153B2, “Methods for preventing and treating angioedema” (The Research for The State University of New York, priority 2009, dated 2014)
Each block holds one molecule with its values, some of them ahead of it.

Experiments:
HK = molecular target: T1, HK (Homo sapiens, UniProt P01042); assay: solid phase ELISA, gC1q-R peptides supporting HK binding
T1 sequence (P01042 19-644): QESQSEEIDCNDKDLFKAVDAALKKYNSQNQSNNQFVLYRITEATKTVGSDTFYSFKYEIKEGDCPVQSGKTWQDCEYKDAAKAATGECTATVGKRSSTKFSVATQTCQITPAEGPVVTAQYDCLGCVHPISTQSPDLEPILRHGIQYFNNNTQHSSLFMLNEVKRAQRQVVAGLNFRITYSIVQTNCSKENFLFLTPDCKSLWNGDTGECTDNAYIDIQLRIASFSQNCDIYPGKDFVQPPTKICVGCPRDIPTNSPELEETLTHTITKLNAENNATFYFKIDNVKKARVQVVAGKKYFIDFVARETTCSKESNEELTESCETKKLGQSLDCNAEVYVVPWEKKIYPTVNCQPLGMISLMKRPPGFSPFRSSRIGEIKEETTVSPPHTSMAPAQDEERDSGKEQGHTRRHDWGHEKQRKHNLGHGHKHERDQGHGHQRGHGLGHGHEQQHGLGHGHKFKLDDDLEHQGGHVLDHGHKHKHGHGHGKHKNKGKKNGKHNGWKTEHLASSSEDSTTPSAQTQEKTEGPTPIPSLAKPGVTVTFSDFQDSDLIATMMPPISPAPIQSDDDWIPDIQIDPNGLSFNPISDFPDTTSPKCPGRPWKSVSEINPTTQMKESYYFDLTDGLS
From the text: By peptide mapping and antibody inhibition studies, we have previously identified a binding site for HK in a gC1q-R domain contained within residues 204-218. […] Thus a possible binding site(s) elsewhere in the molecule was sought. Several peptides were synthesized that correspond with the gC1q-R domains of very high negative charge and, which based on their location in the crystal structure on the solution-face, are hypothesized to interact with solution-phase ligands. […] HK was bound to wells coated with peptide 190-202 and was detected by a monoclonal antibody to HK. […] These antibodies have now been isotyped to be IgG1k.

recombinant gC1q-R = molecular target: T2, recombinant gC1q-R (Homo sapiens, UniProt Q07021); assay: competitive binding ELISA, biotinylated gC1q-R to coated HK peptide
T2 construct: made in house
T2 sequence (Q07021 74-282): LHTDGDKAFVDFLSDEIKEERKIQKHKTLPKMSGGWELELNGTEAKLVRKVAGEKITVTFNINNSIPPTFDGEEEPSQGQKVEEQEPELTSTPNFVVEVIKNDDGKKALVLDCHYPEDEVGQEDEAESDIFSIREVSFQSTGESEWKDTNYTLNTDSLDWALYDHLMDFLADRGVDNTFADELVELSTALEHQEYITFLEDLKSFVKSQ
Experimental: FIG. 5. Panel A: Solution phase HKH20 inhibits binding of gC1q-R to microtiter bound HKH. ELISA wells were first coated with 50 μg/ml peptide HKH20 (SEQ ID NO:11). The wells were then incubated either with biotinylated gC1q-R (5 μg/ml) alone (lane 2) or in the presence of 10 μg/ml (lane 3) or 50 μg/ml (lane 4) HKH20. […] was coated with biotinylated gC1q-R (1 μg/ml) and detected with alkaline-phosphatase conjugated NeutrAvidin. The figure is a representative of two experiments done in duplicate. […] Panel B: HKH20 and histidine-rich fragments bind to gC1q-R. Binding of gC1q-R to HKH-20 (SEQ ID NO:11), HKH-10-1 (residues 479-488; SEQ ID NO:13), HKH-10-2 (residues 484-493; SEQ ID NO:14), and HKH-10-3 (residues 489-498; SEQ ID NO:15). The negative control is binding to BSA.
As discussed earlier, gC1q-R binds HK through a site on domain 5 that is located on the light chain of HK. […] This experiment was performed by competitive binding studies in which ELISA plate wells coated with 100 μg/ml HK peptide were incubated with biotinylated gC1q-R (1 μg/ml) in the presence or absence of increasing concentrations of peptide as a solution phase competitor. […] (FIG. 5B)

endothelial cells = conditions: cited from earlier work
HUVECs = conditions: zinc-dependent; read-out: Kd of binding to HUVECs; cited from earlier work

capture of HK from diluted plasma on peptide-coated wells (HK; plasma 1:10 in TBS, detected by monoclonal antibody to HK): HK was bound
ability to support HK binding (HK; solid phase ELISA): strongly supported binding of HK
Molecule: EDEVGQEDEAESD (listed as Homo sapiens) [peptide 190-202, gC1q-R 190-202]

inhibition of gC1q-R binding to coated HK peptide by solution phase peptide (recombinant gC1q-R; 50 μg/ml HKH20): totally inhibited
binding of gC1q-R to the peptide (recombinant gC1q-R; ELISA wells coated with peptide): bound strongly
Molecule: HKHGHGHGKHKNKGKKNGKH (listed as Homo sapiens) [HKH20, HK 479-498, domain 5]
inhibition of the interaction of HK with intact endothelial cells (endothelial cells): inhibit

B1: HK: high molecular weight kininogen, 115 kDa non-enzymatic plasma glycoprotein (protein, UniProt P01042 19-644, looked up)
Kininogen-1: QESQSEEIDCNDKDLFKAVDAALKKYNSQNQSNNQFVLYRITEATKTVGSDTFYSFKYEIKEGDCPVQSGKTWQDCEYKDAAKAATGECTATVGKRSSTKFSVATQTCQITPAEGPVVTAQYDCLGCVHPISTQSPDLEPILRHGIQYFNNNTQHSSLFMLNEVKRAQRQVVAGLNFRITYSIVQTNCSKENFLFLTPDCKSLWNGDTGECTDNAYIDIQLRIASFSQNCDIYPGKDFVQPPTKICVGCPRDIPTNSPELEETLTHTITKLNAENNATFYFKIDNVKKARVQVVAGKKYFIDFVARETTCSKESNEELTESCETKKLGQSLDCNAEVYVVPWEKKIYPTVNCQPLGMISLMKRPPGFSPFRSSRIGEIKEETTVSPPHTSMAPAQDEERDSGKEQGHTRRHDWGHEKQRKHNLGHGHKHERDQGHGHQRGHGLGHGHEQQHGLGHGHKFKLDDDLEHQGGHVLDHGHKHKHGHGHGKHKNKGKKNGKHNGWKTEHLASSSEDSTTPSAQTQEKTEGPTPIPSLAKPGVTVTFSDFQDSDLIATMMPPISPAPIQSDDDWIPDIQIDPNGLSFNPISDFPDTTSPKCPGRPWKSVSEINPTTQMKESYYFDLTDGLS
Kd (HUVECs): 40 to 50 nM
